B1: MFF (parent)
chain: YTEGISQRMRVPEKLKVAPPNADL

Variants of: B1
Test: protein stability index of a GFP-peptide fusion (GPS, HEK-293T) (PSI 1-6); higher = more stable
Conditions: c terminus: a fixed tail appended
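Also: lentivirally expressed fusions sorted by FACS into six bins by GFP to DsRed ratio, PSI derived from sequencing read proportions per bin multiplied by bin number.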

| Variant | protein stability index |
| --- | --- |
| YTEGISQRMRVVEKLKVAPPNADL [P12V] | 2.64 |
| YTEGISQRMRVGEKLKVAPPNADL [P12G] | 2.46 |
| YTEGISQRMRVQEKLKVAPPNADL [P12Q] | 2.78 |
| YTEGISQRMRVREKLKVAPPNADL [P12R] | 2.82 |
| YTEGISQRMRVHEKLKVAPPNADL [P12H] | 2.77 |
| YTEGISQRMRVSEKLKVAPPNADL [P12S] | 2.53 |
| YTEGISQRMRVAEKLKVAPPNADL [P12A] | 3.06 |
| YTEGISQRMRVKEKLKVAPPNADL [P12K] | 2.57 |
| YTEGISQRMRVNEKLKVAPPNADL [P12N] | 2.96 |
| YTEGISQRMRVLEKLKVAPPNADL [P12L] | 2.42 |
| YTEGISQRMRVYEKLKVAPPNADL [P12Y] | 2.58 |
| YTEGISQRMRVIEKLKVAPPNADL [P12I] | 2.21 |
| YTEGISQRMRVEEKLKVAPPNADL [P12E] | 2.69 |
| YTEGISQRMRVWEKLKVAPPNADL [P12W] | 2.46 |
| YTEGISQRMRVMEKLKVAPPNADL [P12M] | 2.59 |
| YTEGISQRMRVCEKLKVAPPNADL [P12C] | 2.14 |
| YTEGISQRMRVDEKLKVAPPNADL [P12D] | 2.73 |
| YTEGISQRMRVTEKLKVAPPNADL [P12T] | 2.09 |
| YTEGISQRMRVFEKLKVAPPNADL [P12F] | 1.88 |
| YTEGISQRMRVPEKLKVAQPNADL [P19Q] | 2.67 |
| YTEGISQRMRVPEKLKVAKPNADL [P19K] | 2.71 |
| YTEGISQRMRVPEKLKVAWPNADL [P19W] | 1.91 |
| YTEGISQRMRVPEKLKVAEPNADL [P19E] | 2.56 |
| YTEGISQRMRVPEKLKVAAPNADL [P19A] | 2.51 |

| Variant | protein stability index |
| --- | --- |
| YTEGISQRMRVPEKLKVARPNADL [P19R] | 2.43 |
| YTEGISQRMRVPEKLKVALPNADL [P19L] | 3.41 |
| YTEGISQRMRVPEKLKVACPNADL [P19C] | 3.25 |
| YTEGISQRMRVPEKLKVASPNADL [P19S] | 2.62 |
| YTEGISQRMRVPEKLKVAFPNADL [P19F] | 2.44 |
| YTEGISQRMRVPEKLKVAIPNADL [P19I] | 2.52 |
| YTEGISQRMRVPEKLKVAMPNADL [P19M] | 2.32 |
| YTEGISQRMRVPEKLKVAYPNADL [P19Y] | 2.33 |
| YTEGISQRMRVPEKLKVATPNADL [P19T] | 2.51 |
| YTEGISQRMRVPEKLKVAHPNADL [P19H] | 2.54 |
| YTEGISQRMRVPEKLKVAVPNADL [P19V] | 3.29 |
| YTEGISQRMRVPEKLKVADPNADL [P19D] | 3.37 |
| YTEGISQRMRVPEKLKVAGPNADL [P19G] | 2.78 |
| YTEGISQRMRVPEKLKVANPNADL [P19N] | 2.78 |
| YTEGISQRMRVPEKLKVSPPNADL [A18S] | 2.85 |
| YTEGISQRMRVPEKLKVEPPNADL [A18E] | 3.03 |
| YTEGISQRMRVPEKLKVMPPNADL [A18M] | 2.89 |
| YTEGISQRMRVPEKLKVKPPNADL [A18K] | 2.59 |
| YTEGISQRMRVPEKLKVPPPNADL [A18P] | 2.89 |
| YTEGISQRMRVPEKLKVYPPNADL [A18Y] | 2.59 |
| YTEGISQRMRVPEKLKVNPPNADL [A18N] | 2.78 |
| YTEGISQRMRVPEKLKVCPPNADL [A18C] | 2.77 |
| YTEGISQRMRVPEKLKVQPPNADL [A18Q] | 3.24 |
| YTEGISQRMRVPEKLKVWPPNADL [A18W] | 2.23 |

| Variant | protein stability index |
| --- | --- |
| YTEGISQRMRVPEKLKVTPPNADL [A18T] | 3.03 |
| YTEGISQRMRVPEKLKVRPPNADL [A18R] | 2.67 |
| YTEGISQRMRVPEKLKVDPPNADL [A18D] | 3.19 |
| YTEGISQRMRVPEKLKVLPPNADL [A18L] | 2.88 |
| YTEGISQRMRVPEKLKVVPPNADL [A18V] | 2.72 |
| YTEGISQRMRVPEKLKVGPPNADL [A18G] | 2.54 |
| YTEGISQRMRVPEKLKVFPPNADL [A18F] | 2.2 |
| YTEGISQRMRVPEKLKVHPPNADL [A18H] | 3.88 |
| YTEGISQRMRVPEKLKVIPPNADL [A18I] | 3.15 |
| YTEGISQRMRVPEDLKVAPPNADL [K14D] | 3.13 |
| YTEGISQRMRVPEVLKVAPPNADL [K14V] | 2.72 |
| YTEGISQRMRVPECLKVAPPNADL [K14C] | 3.07 |
| YTEGISQRMRVPEQLKVAPPNADL [K14Q] | 3.41 |
| YTEGISQRMRVPENLKVAPPNADL [K14N] | 3.44 |
| YTEGISQRMRVPESLKVAPPNADL [K14S] | 3.38 |
| YTEGISQRMRVPEHLKVAPPNADL [K14H] | 2.88 |
| YTEGISQRMRVPEELKVAPPNADL [K14E] | 3.17 |
| YTEGISQRMRVPEWLKVAPPNADL [K14W] | 2.11 |
| YTEGISQRMRVPEGLKVAPPNADL [K14G] | 3.28 |
| YTEGISQRMRVPERLKVAPPNADL [K14R] | 3.55 |
| YTEGISQRMRVPEYLKVAPPNADL [K14Y] | 2.44 |
| YTEGISQRMRVPEPLKVAPPNADL [K14P] | 3.32 |
| YTEGISQRMRVPEFLKVAPPNADL [K14F] | 2.96 |
| YTEGISQRMRVPETLKVAPPNADL [K14T] | 3.06 |

| Variant | protein stability index |
| --- | --- |
| YTEGISQRMRVPEILKVAPPNADL [K14I] | 2.71 |
| YTEGISQRMRVPELLKVAPPNADL [K14L] | 2.87 |
| YTEGISQRMRVPEALKVAPPNADL [K14A] | 3.06 |
| YTEGISQRMRVPEMLKVAPPNADL [K14M] | 3.39 |
| YTEGISQRMRVPMKLKVAPPNADL [E13M] | 2.64 |
| YTEGISQRMRVPHKLKVAPPNADL [E13H] | 2.98 |
| YTEGISQRMRVPWKLKVAPPNADL [E13W] | 2.16 |
| YTEGISQRMRVPTKLKVAPPNADL [E13T] | 2.57 |
| YTEGISQRMRVPIKLKVAPPNADL [E13I] | 2.49 |
| YTEGISQRMRVPGKLKVAPPNADL [E13G] | 2.18 |
| YTEGISQRMRVPDKLKVAPPNADL [E13D] | 2.86 |
| YTEGISQRMRVPKKLKVAPPNADL [E13K] | 2.2 |
| YTEGISQRMRVPRKLKVAPPNADL [E13R] | 2.9 |
| YTEGISQRMRVPPKLKVAPPNADL [E13P] | 2.65 |
| YTEGISQRMRVPLKLKVAPPNADL [E13L] | 2.33 |
| YTEGISQRMRVPFKLKVAPPNADL [E13F] | 2.35 |
| YTEGISQRMRVPYKLKVAPPNADL [E13Y] | 2.54 |
| YTEGISQRMRVPQKLKVAPPNADL [E13Q] | 2.65 |
| YTEGISQRMRVPSKLKVAPPNADL [E13S] | 3.18 |
| YTEGISQRMRVPVKLKVAPPNADL [E13V] | 2.79 |
| YTEGISQRMRVPCKLKVAPPNADL [E13C] | 2.53 |
| YTEGISQRMRVPAKLKVAPPNADL [E13A] | 2.95 |
